Several values for one entry are separate records, joined by “and”; a condition that tells them apart may be missing. Equal values may be shown once.
Assays:
[1] = Thermostability: relative bioluminescence activity after 30 min incubation; assay type: physicochemical; details: for Thermostability, luminescence activity relative to wt-aequorin: CLZ-f
Protocol: Thermostability of aequorin and redquorin mutant with increased affinity for calcium were compared to wt-aequorin (FIG. 5). The purified photoprotein samples were reconstituted with CLZ-f (as detailed earlier) and let to calibrate at room temperature (20-24° C.) for 20 min before taken the first measurement of total counts using saturating calcium solution (50 mM Tris-HCl, 100 mM CaCl2, pH 7.5). Samples were then incubated at two different temperatures (30 to 40° C.) for 30 min, and let equilibrate at room temperature for 15 minbefore taken the second measurement of total counts in the sample. The relative bioluminescence activity at each temperature was calculated by the ratio 2nd counts (at target T° C.)/1st counts (at initial T° C.) multiplied by 100.
Table 6 highlights the analysis of thermostability data obtained at two temperatures for aequorin and redquorin mutants, as well as CitA and GA. The values represent the degree of change in luminescence activity compared to wt-aeq, at each temperature. All values are relative to wt-aequorin (at each temperature) and were calculated by dividing the obtained data for each mutant/variant by the data for wt-aeq (as reference). The data were taken from FIG. 5.

[2] = Ca2+ sensitivity curves of reconstituted photoproteins (L/Lmax vs free Ca2+); assay type: biochemical; details: for Relative intensity at pCa 6.5 / Relative intensity at pCa 7.2 / affinity to calcium group relative to Aeq-wt: CLZ-f; for Relative intensity at pCa 6.5 / Relative intensity at pCa 7.2: L/Lmax compared to Aeq-wt; for affinity to calcium group relative to Aeq-wt: at pCa 6.5, FIG. 2; for EC50: aequorin proteins reconstituted with CLZ-f, sigmoidal curve fit, mean ± SD, n at least 3, read-out: Calcium sensitivity, EC50
Protocol: For in vitro reconstitution, the purified and concentrated samples of apoaequorin and redquorin mutant proteins were buffer-exchanged to 50 mM Tris-HCl (pH 7.5), 150 mM NaCl, 10 mM EGTA, 5 mM ß-mercaptoethanol, supplemented with 5 μM CLZ-f or CLZ-native and incubated overnight at 4° C., in the dark. The next day, samples were passed through molecular weight cut-offs (AmiconUitra MWCO, 10K and 50K, from Millipore), then resuspended in Zero-Ca^2+ buffer (30 mM MOPS, 100 mM KCl and 10 mM EGTA, pH 7.2) for calcium affinity, emission decay kinetics and spectral analysis assays. As for in cellulo reconstitution, HEK cells transiently expressing the proteins of apoaequorin and aporedquorin mutants were washed twice with Hank's Balanced Salt Solution (HBSS) and incubated in the dark, with 4 μM of the desired CLZ diluted in OptiMEM I medium (Gibco), for 2-3h at 37° C. and 5% CO2. Cells were washed once and maintained in HBSS at 37° C. for 20 min before the experiment.
Functional Analysis of Aequorin Mutants and Fusions Ca^2+ Sensitivity Curves.
Purified and reconstituted samples with CLZ-f or CLZ-native already buffered-exchanged to zero-calcium buffer ensured to minimize calcium contamination that could interfere with the measurements. Fifteen microliter aliquot of photoprotein samples (concentration range, 50 to 90 ng/μl) was placed in a home-made luminometer and mixed with 300 μl solution containing the desired concentration of free-Ca^2+. The solutions of EGTA-buffered with varying free-Ca^2+ prepared according to the manufacturer instruction for the kit (Molecular Probes, Invitrogen). Integration of the luminescence emission (per second) was measured for 20 seconds (background) before injecting a solution with known [free-Ca^2+] and lasted until stable or decaying signal (at final-phase) was obtained. At this point, 400 μl of a saturating calcium solution (30 mM MOPS, 100 mM CaCl2, pH 7.2) was rapidly injected (less than 30 ms) and light integration continued until all aequorin had been consumed and light intensity had gone back to background signal. Luminescence intensity (L) at different [Ca^2+] was taken as the response peak value in case of decaying signal or as the stable value in case of stable emission. Lmax, was measured by integrating all remaining luminescence signal from that moment (L value) to the end of the experiment. The EC50 values were extracted from a sigmoidal dose-response fit (variable slope) using GraphPad Prism software.

Row | Molecule | Thermostability, luminescence activity relative to wt-aequorin ([1]; 30° C. for 30 min) | Thermostability, luminescence activity relative to wt-aequorin ([1]; 40° C. for 30 min) | less activity compared to wt-aeq (thermostability) ([1]; after incubation at 30 and 40° C.) [%] | Relative intensity at pCa 6.5 [2] | Relative intensity at pCa 7.2 [2] | affinity to calcium group relative to Aeq-wt [2] | EC50 [2] [nM]
1 | A123D: apoaequorin mutant, alanine 123 replaced by aspartic acid (SEQ ID NO:10) (protein, mutant aequorin) SKLTSDFDNPRWIGRHKHMFNFLDVNHNGKISLDEMVYKASDIVINNLGATPEQAKRHKDAVEAFFGGAGMKYGVETDWPAYIEGWKKLATDELEKYAKNEPTLIRIWGDALFDIVDKDQNGDITLDEWKAYTKAAGIIQSSEDCEETFRVCDIDESGQLDVDEMTRQHLGFWYTMDPACEKLYGGAVP | 0.82 | 0.84 | 19 | 3.6 | 1.6 | medium-high to high | 374
2 | A179T: apoaequorin mutant, alanine 179 replaced by threonine (SEQ ID NO:11) (protein, mutant aequorin) SKLTSDFDNPRWIGRHKHMFNFLDVNHNGKISLDEMVYKASDIVINNLGATPEQAKRHKDAVEAFFGGAGMKYGVETDWPAYIEGWKKLATDELEKYAKNEPTLIRIWGDALFDIVDKDQNGAITLDEWKAYTKAAGIIQSSEDCEETFRVCDIDESGQLDVDEMTRQHLGFWYTMDPTCEKLYGGAVP | 0.96 | 1.02 | – | 3.0 | 1.3 | medium-high to high | 330
3 | QT + ND: apoaequorin double mutant Q159T + N121D (SEQ ID NO:14) (protein, mutant aequorin) SKLTSDFDNPRWIGRHKHMFNFLDVNHNGKISLDEMVYKASDIVINNLGATPEQAKRHKDAVEAFFGGAGMKYGVETDWPAYIEGWKKLATDELEKYAKNEPTLIRIWGDALFDIVDKDQDGAITLDEWKAYTKAAGIIQSSEDCEETFRVCDIDESGTLDVDEMTRQHLGFWYTMDPACEKLYGGAVP | – | – | – | 14.4 | 12.2 | – | 337 ± 10
4 | S157A: aequorin single mutant S157A, low calcium affinity (protein) SKLTSDFDNPRWIGRHKHMFNFLDVNHNGKISLDEMVYKASDIVINNLGATPEQAKRHKDAVEAFFGGAGMKYGVETDWPAYIEGWKKLATDELEKYAKNEPTLIRIWGDALFDIVDKDQNGAITLDEWKAYTKAAGIIQSSEDCEETFRVCDIDEAGQLDVDEMTRQHLGFWYTMDPACEKLYGGAVP | – | – | – | – | – | low | –
5 | Q159D: apoaequorin mutant, glutamine 159 replaced by aspartic acid (SEQ ID NO:5) (protein, mutant aequorin) SKLTSDFDNPRWIGRHKHMFNFLDVNHNGKISLDEMVYKASDIVINNLGATPEQAKRHKDAVEAFFGGAGMKYGVETDWPAYIEGWKKLATDELEKYAKNEPTLIRIWGDALFDIVDKDQNGAITLDEWKAYTKAAGIIQSSEDCEETFRVCDIDESGDLDVDEMTRQHLGFWYTMDPACEKLYGGAVP | 0.95 | 1.00 | – | 25 and 25.1 | – | medium-high to high and high | 330
6 | QT + AT: apoaequorin double mutant Q159T + A179T (SEQ ID NO:18) (protein, mutant aequorin) SKLTSDFDNPRWIGRHKHMFNFLDVNHNGKISLDEMVYKASDIVINNLGATPEQAKRHKDAVEAFFGGAGMKYGVETDWPAYIEGWKKLATDELEKYAKNEPTLIRIWGDALFDIVDKDQNGAITLDEWKAYTKAAGIIQSSEDCEETFRVCDIDESGTLDVDEMTRQHLGFWYTMDPTCEKLYGGAVP | – | – | – | 29.0 | 14.0 | – | 281 ± 25
7 | S157T: aequorin single mutant S157T, medium-low calcium affinity (protein) SKLTSDFDNPRWIGRHKHMFNFLDVNHNGKISLDEMVYKASDIVINNLGATPEQAKRHKDAVEAFFGGAGMKYGVETDWPAYIEGWKKLATDELEKYAKNEPTLIRIWGDALFDIVDKDQNGAITLDEWKAYTKAAGIIQSSEDCEETFRVCDIDETGQLDVDEMTRQHLGFWYTMDPACEKLYGGAVP | – | – | – | – | – | medium-low | –
8 | QT + AD: apoaequorin double mutant Q159T + A123D (SEQ ID NO:16) (protein, mutant aequorin) SKLTSDFDNPRWIGRHKHMFNFLDVNHNGKISLDEMVYKASDIVINNLGATPEQAKRHKDAVEAFFGGAGMKYGVETDWPAYIEGWKKLATDELEKYAKNEPTLIRIWGDALFDIVDKDQNGDITLDEWKAYTKAAGIIQSSEDCEETFRVCDIDESGTLDVDEMTRQHLGFWYTMDPACEKLYGGAVP | – | – | – | 22.8 | 10.0 | – | 279
9 | Q159T: apoaequorin mutant, glutamine 159 replaced by threonine (SEQ ID NO:6) (protein, mutant aequorin) SKLTSDFDNPRWIGRHKHMFNFLDVNHNGKISLDEMVYKASDIVINNLGATPEQAKRHKDAVEAFFGGAGMKYGVETDWPAYIEGWKKLATDELEKYAKNEPTLIRIWGDALFDIVDKDQNGAITLDEWKAYTKAAGIIQSSEDCEETFRVCDIDESGTLDVDEMTRQHLGFWYTMDPACEKLYGGAVP | 0.92 | 0.96 | – | 16 and 16.6 | 4.8 | medium-high to high | 249 ± 13
10 | Q159E: apoaequorin mutant, glutamine 159 replaced by glutamic acid (SEQ ID NO:8) (protein, mutant aequorin) SKLTSDFDNPRWIGRHKHMFNFLDVNHNGKISLDEMVYKASDIVINNLGATPEQAKRHKDAVEAFFGGAGMKYGVETDWPAYIEGWKKLATDELEKYAKNEPTLIRIWGDALFDIVDKDQNGAITLDEWKAYTKAAGIIQSSEDCEETFRVCDIDESGELDVDEMTRQHLGFWYTMDPACEKLYGGAVP | 0.89 | 0.94 | – | – | – | – | –
11 | Q140R: aequorin single mutant Q140R, low calcium affinity (protein) SKLTSDFDNPRWIGRHKHMFNFLDVNHNGKISLDEMVYKASDIVINNLGATPEQAKRHKDAVEAFFGGAGMKYGVETDWPAYIEGWKKLATDELEKYAKNEPTLIRIWGDALFDIVDKDQNGAITLDEWKAYTKAAGIIRSSEDCEETFRVCDIDESGQLDVDEMTRQHLGFWYTMDPACEKLYGGAVP | – | – | – | – | – | low | –

From patent publication US20180319855A1, “GENETICALLY MUTATED AEQUORIN-BASED BIOSENSORS WITH EXTRA SENSITIVITY TO CALCIUM AND IMPROVED BIOLUMINESCENCE INTENSITY” (CENTRE NATIONAL DE LA RECHERCHE SCIENTIFIQUE (CNRS), priority 2015, published 2018)
